The Kd is a measure of binding affinity in units of concentration.

Common to all, as to conditions: both partners purified
In assay [1] the target is T1, second WW domain of human YAP2 (YAP-WW2) (human, UniProt P46937-2 228-271).
T1 construct: also called hYAP-WW2; not shown: GST, N-terminal, cleaved; His tag, N-terminal, cleaved
Description: other fluorescence titration.

Assay [2] deals with T2, first WW domain of human YAP2 (YAP-WW1) (human, UniProt P46937-2 165-209).
T2 construct: also called hYAP-WW1; not shown: GST, N-terminal, cleaved; His tag, N-terminal, cleaved
Description: other fluorescence titration.

In assay [3] the target is T3, third WW domain of human NEDD4 (hNEDD4-WW3), unlabelled (human, UniProt P46934 834-878).
T3 construct: not shown: GST, N-terminal, cleaved; His tag, N-terminal, cleaved
Description: ITC.

Assay [4] deals with T2, first WW domain of human YAP2 (YAP-WW1). Description: ITC. Background: Isothermal titration calorimetry measures the heat released or taken up as one component is titrated into another.
Assay [5] concerns the target T1, second WW domain of human YAP2 (YAP-WW2). In words: ITC.
Assay [6] shares this target. In words: other fluorescence titration; tryptophan fluorescence of the WW domain (20 uM), excitation 298 nm, centre of spectral mass against peptide concentration, one to one model; 20 mM sodium phosphate pH 7.0, 25 °C.
Assay [7] deals with T2, first WW domain of human YAP2 (YAP-WW1). The description is as above.

Values joined by “and” are separate entries in the source; they are usually repeats but may differ in a detail not shown here. Equal values may be shown once.

T1 sequence (P46937 228-271): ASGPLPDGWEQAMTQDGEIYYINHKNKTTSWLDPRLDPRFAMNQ
T3 sequence (P46934 834-878): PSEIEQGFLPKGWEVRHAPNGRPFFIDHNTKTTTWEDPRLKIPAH
T2 sequence (P46937 165-209): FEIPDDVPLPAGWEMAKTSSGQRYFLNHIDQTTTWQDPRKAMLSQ

In the case of ILPTAPPEYMEA [Ebola Late domain peptide], the Kd in assay [1] stood at 560 ± 30 µM; in assay [2], 750 ± 10 µM; in assay [3], 147 ± 4 µM. The molecule also showed a dH in assay [3] of -12.1 ± 0.167 kcal/mol.
On to DLWLPPPEYVPL [Rabies Late domain peptide], for which the Kd in assay [4] turned out to be 181 ± 5 µM; in assay [3] it was 51 ± 1 µM. Moreover, the dH was -15.2 ± 0.215 kcal/mol in assay [4] and -15.7 ± 0.191 kcal/mol in assay [3].

B1: HTLV1ter Late domain peptide (peptide)
peptide: Ac-PPPYVEPTAP-NH2
notes: source: synthetic peptide, bought: SynBioSci Corporation
With B1, in assay [3], binding was put at a Kd of 178 ± 3 µM and the dH is -17.7 ± 0.191 kcal/mol.
With Ac-EYPPYPPPPYPSG-NH2 [p53bp2 human peptide], the Kd in assay [5] is 12 ± 0.6 µM; in assay [4] it was 3 µM and 1.1 µM and 1.8 µM. Also, the dH in assay [5] was -13.6 ± 0.239 kcal/mol; in assay [4] it was -14.6 kcal/mol and -15.9 kcal/mol and -13.1 kcal/mol.
For the molecule SDPQIPPPYVEP [HTLV1 Late domain peptide], the Kd amounted to 260 ± 40 µM in assay [6], 308 ± 4 µM in assay [7] and 61 ± 1 µM in assay [3]. In assay [3], the dH was -16.3 ± 0.143 kcal/mol.
As for MQYLNPPPYADH [Marburg Late domain peptide], the Kd in assay [1] stood at 17 ± 1 µM; in assay [2], 67 ± 4 µM; in assay [3], 51 ± 1 µM. This molecule yielded a dH in assay [3] of -17.5 ± 0.167 kcal/mol.

Values taken from paper PMC6803667 (Scientific Reports, 2019).
